In PMC9411612, “Single residue modulators of amyloid formation in the N-terminal P1-region of α-synuclein” (Nature Communications, 2022):

B1: MTSL-labelled Cys-P1-peptide (Ac-C-KTKE-GVLYVGS-KTKE-NH2) (peptide)
peptide: CKTKEGVLYVGSKTKE
modifications: N-terminal acetylation; MTSL on the thiol group of the introduced N-terminal cysteine; C-terminal amidation
notes: cysteine introduced at the N-terminus for MTSL labelling; observed mass 1995.07 Da after labelling; also called MTSL-labelled peptide-P1; 14N P1-peptide N-terminally labelled with MTSL; source: synthetic peptide, bought: Severn Biotech Ltd; labelled with MTSL, reverse phase HPLC
B2: P1-peptide (Ac-KTKE-GVLYVGS-KTKE-NH2) (peptide)
peptide: Ac-KTKEGVLYVGSKTKE-NH2
notes: also called peptide-P1; peptide P1; source: synthetic peptide, bought: Severn Biotech Ltd

How the values were obtained:
[1] = target: T1, ΔP1 αSyn (alpha-synuclein with residues 36-42 deleted) (UniProt P37840 1-140, deletion of the seven-residue P1 sequence 36GVLYVGS42 (ΔP1)); assay: NMR paramagnetic relaxation enhancement (PRE); 100 µM 15N-labelled protein with 100 µM 14N MTSL-labelled peptide; diamagnetic spectra after 1 mM ascorbic acid; 20 mM Tris-HCl, pH 7.5, 200 mM NaCl, 15 °C; conditions: both partners purified
[2] = target: T2, wild-type alpha-synuclein (WT αSyn) (UniProt P37840 1-140); assay: as above; conditions: both partners purified
[3] = target: T1, ΔP1 αSyn (alpha-synuclein with residues …); assay: cell-based or functional assay
[4] = target: T1, ΔP1 αSyn (alpha-synuclein with residues …); assay: native MS; native nESI-MS; 20 µM protein, αSyn:P1-peptide 1:10, 20 mM ammonium acetate pH 7.5; conditions: both partners purified
[5] = target: T2, wild-type alpha-synuclein (WT αSyn); assay: as above; conditions: both partners purified

Binder	binding result [1]	binding result [2]	t50 of amyloid formation (ThT fluorescence), 100 µM ΔP1 with P1-peptide in 10-fold molar excess, pH 7.5 (aggregation begins within 110 h at equimolar ratio) [3]	stoichiometry N [4]	stoichiometry N [5]
B1	binds	binds			
B2			14.4 h	1	1
